# Measured values: article PMC10164577, “CAF-1 deposits newly synthesized histones during DNA replication using distinct mechanisms on the leading and lagging strands” (Nucleic Acids Research, 2022)
# Tests used:
# Settings in all cases: both partners purified
# [1] = target: T1, Chromatin Assembly Factor-1 (CAF-1), wild type (yeast, UniProt Q12495 1-606; Q04199 1-468; P13712 1-422); assay: SEC; PCNA (30 μM) loaded on nicked pUC19 (0.3 μM) by RFCΔN (0.5 μM) with 10 mM MgCl2 and 3 mM ATP, then CAF-1 (5 μM), 15 min room temperature; Superose 6 increase 3.2/300 in 50 mM HEPES pH 7.5, 200 mM NaCl, 0.01% IGEPAL, 1 mM TCEP, 10 mM MgCl2; fractions on SDS-PAGE
# T1 construct: Cac1, large subunit of yeast CAF-1; Cac2, subunit of yeast CAF-1; Cac3, subunit of yeast CAF-1; Heterotrimer Cac1-Cac2-Cac3; also called WT CAF-1; copies: + +
# [2] = target: T1, Chromatin Assembly Factor-1 (CAF-1), …; assay: cross-linking; limiting PCNA: 50 nM AF546-PCNA K164C loaded on nicked pUC19 (15 nM) by full-length RFC (15 nM), CAF-1 titrated 0-1 μM, 100-110 mM NaCl; 0.2% glutaraldehyde; nuclease digestion; SDS-PAGE, PCNA fluorescence, band intensities; affinities estimated
# [3] = target: T2, Clamp loader RFC (RFC1-5), full-length (yeast, UniProt P38630 1-861; P40348 1-353; P38629 1-340; P40339 1-323; P38251 1-354); assay: as above
# T2 construct: Rfc1, yeast replication factor C subunit 1; Rfc2, yeast replication factor C subunit 2; Rfc3, yeast replication factor C subunit 3; Rfc4, yeast replication factor C subunit 4; Rfc5, yeast replication factor C subunit 5; also called full-length RFC; copies: + + + +
# [4] = target: Histones H3–H4 (H3 C110A-H4 E63C), Alexa488-labeled (Xenopus laevis, maleimide AlexaFluor-488 on E63C); assay: fluorescence polarisation; 10 nM Alexa488-labeled H3–H4 with increasing CAF-1, Polϵ, Polδ or RPA; 25 mM TRIS pH 7.5, 300 mM NaCl, 5% glycerol, 1 mM EDTA, 0.01% IGEPAL, 0.01% CHAPS, 1 mM DTT; one site binding curve
binder,measurement,setting,value
"Proliferating Cell Nuclear Antigen (PCNA), wild type (natural protein, yeast, UniProt P15873 1-258, looked up, PCNA, yeast; homotrimeric clamp; In the SEC experiments loaded onto nicked pUC19 by RFCΔN and ATP) MLEAKFEEASLFKRIIDGFKDCVQLVNFQCKEDGIIAQAVDDSRVLLVSLEIGVEAFQEYRCDHPVTLGMDLTSLSKILRCGNNTDTLTLIADNTPDSIILLFEDTKKDRIAEYSLKLMDIDADFLKIEELQYDSTLSLPSSEFSKIVRDLSQLSDSINIMITKETIKFVADGDIGSGSVIIKPFVDMEHPETSIKLEMDQPVDLTFGAKYLLDIIKGSSLSDRVGIRLSSEAPALFQFDLKSGFLQFFLAPKFNDEE",binding result,[1],binds
"PCNA K164C, labeled with Alexa Fluor 546 (natural protein, yeast, UniProt P15873 1-258, looked up, labeled with Alexa Fluor 546, PCNA, yeast, K164C; also called fluorescently labeled PCNA; source: made by standard mutagenesis, purified following the wild-type protocol) MLEAKFEEASLFKRIIDGFKDCVQLVNFQCKEDGIIAQAVDDSRVLLVSLEIGVEAFQEYRCDHPVTLGMDLTSLSKILRCGNNTDTLTLIADNTPDSIILLFEDTKKDRIAEYSLKLMDIDADFLKIEELQYDSTLSLPSSEFSKIVRDLSQLSDSINIMITCETIKFVADGDIGSGSVIIKPFVDMEHPETSIKLEMDQPVDLTFGAKYLLDIIKGSSLSDRVGIRLSSEAPALFQFDLKSGFLQFFLAPKFNDEE",Kd,[2],~100 nM
same,binding result,[3],binds
DNA polymerase delta (Polδ) (complex) chain 1: MSEKRSLPMVDVKIDDEDTPQLEKKIKRQSIDHGVGSEPVSTIEIIPSDSFRKYNSQGFKAKDTDLMGTQLESTFEQELSQMEHDMADQEEHDLSSFERKKLPTDFDPSLYDISFQQIDAEQSVLNGIKDENTSTVVRFFGVTSEGHSVLCNVTGFKNYLYVPAPNSSDANDQEQINKFVHYLNETFDHAIDSIEVVSKQSIWGYSGDTKLPFWKIYVTYPHMVNKLRTAFERGHLSFNSWFSNGTTTYDNIAYTLRLMVDCGIVGMSWITLPKGKYSMIEPNNRVSSCQLEVSINYRNLIAHPAEGDWSHTAPLRIMSFDIECAGRIGVFPEPEYDPVIQIANVVSIAGAKKPFIRNVFTLNTCSPITGSMIFSHATEEEMLSNWRNFIIKVDPDVIIGYNTTNFDIPYLLNRAKALKVNDFPYFGRLKTVKQEIKESVFSSKAYGTRETKNVNIDGRLQLDLLQFIQREYKLRSYTLNAVSAHFLGEQKEDVHYSIISDLQNGDSETRRRLAVYCLKDAYLPLRLMEKLMALVNYTEMARVTGVPFSYLLARGQQIKVVSQLFRKCLEIDTVIPNMQSQASDDQYEGATVIEPIRGYYDVPIATLDFNSLYPSIMMAHNLCYTTLCNKATVERLNLKIDEDYVITPNGDYFVTTKRRRGILPIILDELISARKRAKKDLRDEKDPFKRDVLNGRQLALKISANSVYGFTGATVGKLPCLAISSSVTAYGRTMILKTKTAVQEKYCIKNGYKHDAVVVYGDTDSVMVKFGTTDLKEAMDLGTEAAKYVSTLFKHPINLEFEKAYFPYLLINKKRYAGLFWTNPDKFDKLDQKGLASVRRDSCSLVSIVMNKVLKKILIERNVDGALAFVRETINDILHNRVDISKLIISKTLAPNYTNPQPHAVLAERMKRREGVGPNVGDRVDYVIIGGNDKLYNRAEDPLFVLENNIQVDSRYYLTNQLQNPIISIVAPIIGDKQANGMFVVKSIKINTGSQKGGLMSFIKKVEACKSCKGPLRKGEGPLCSNCLARSGELYIKALYDVRDLEEKYSRLWTQCQRCAGNLHSEVLCSNKNCDIFYMRVKVKKELQEKVEQLSKW chain 2: MDALLTKFNEDRSLQDENLSQPRTRVRIVDDNLYNKSNPFQLCYKKRDYGSQYYHIYQYRLKTFRERVLKECDKRWDAGFTLNGQLVLKKDKVLDIQGNQPCWCVGSIYCEMKYKPNVLDEVINDTYGAPDLTKSYTDKEGGSDEIMLEDESGRVLLVGDFIRSTPFITGVVVGILGMEAEAGTFQVLDICYPTPLPQNPFPAPIATCPTRGKIALVSGLNLNNTSPDRLLRLEILREFLMGRINNKIDDISLIGRLLICGNSVDFDIKSVNKDELMISLTEFSKFLHNILPSISVDIMPGTNDPSDKSLPQQPFHKSLFDKSLESYFNGSNKEILNLVTNPYEFSYNGVDVLAVSGKNINDICKYVIPSNDNGESENKVEEGESNDFKDDIEHRLDLMECTMKWQNIAPTAPDTLWCYPYTDKDPFVLDKWPHVYIVANQPYFGTRVVEIGGKNIKIISVPEFSSTGMIILLDLETLEAETVKIDI chain 3: MDQKASYFINEKLFTEVKPVLFTDLIHHLKIGPSMAKKLMFDYYKQTTNAKYNCVVICCYKDQTIKIIHDLSNIPQQDSIIDCFIYAFNPMDSFIPYYDIIDQKDCLTIKNSYELKVSESSKIIERTKTLEEKSKPLVRPTARSKTTPEETTGRKSKSKDMGLRSTALLAKMKKDRDDKETSRQNELRKRKEENLQKINKQNPEREAQMKELNNLFVEDDLDTEEVNGGSKPNSPKETDSNDKDKNNDDLEDLLETTAEDSLMDVPKIQQTKPSETEHSKEPKSEEEPSSFIDEDGYIVTKRPATSTPPRKPSPVVKRALSSSKKQETPSSNKRLKKQGTLESFFKRKAK,Kd,[4],≥ 300 nM
